B1: PMX168 (monospecific anti-canine CD3, canine IgG-B effector function deficient Fc) (antibody, V domains shown)
VH: ELTLQESGPGLVKPSQTLSLTCVVSGGSVTRSYYWNWIRQRPGRGLEWMGYWTGTTNYNPAFQGRISITADTAKNQCSLQLSSMTTEDTAVYYCAREGGKLLGAFGHWGQGTLVTVSS
VL: SYVLTQLPSKNVTLKQPAHITCGGDKIGSKSVHWYQQKLGQAPVLIIYYDSSRPTGIPERFSGANSGNTATLTISGALAEDEADYYCQVWDSSAKASVFGGGTHLTVL
B2: PMX167 (monospecific anti-canine CD3, canine IgG-B effector function deficient Fc) (antibody, V domains shown)
VH: EVKLVESGGDLVKPGGSLRLSCMASGFTLNNYYMSWVRQAPGKGLQWVAYIKSGGSDTSYVDAVKGRFTISRDNAKNTLHLQMNSLRVEDTAVYYCATDGYIWAWGQGTLVTVSS
VL: SYVLTQLPSKNVTLKQPAHITCGGDNIGSKSVHWYQQKLGQAPVLIIYYDNSRPTGIPERFSGAKSGNTATLTISGALAEDEADYYCQVWDSSSKAYVFGSGTQLTVL
B3: PMX170 (monospecific anti-canine CD3, canine IgG-B effector function deficient Fc) (antibody)
heavy: EVQLVESGGDLVKPGGSLRLSCVASGFTFSSYHMSWVRQAPGKGLQWVAYSNSGGSRTSYADAVKGRFTISRDNAKNTLYLQMSSLRAEDTAVYYCASEGGGGRYGFKDYGMDYWGHGTSLFVSSASTTAPSVFPLAPSCGSTSGSTVALACLVSGYFPEPVTVSWNSGSLTSGVHTFPSVLQSSGLYSLSSMVTVPSSRWPSETFTCNVAHPASKTKVDKPVPKRENGRVPRPPDCPKCPAPESLGGPSVFIFPPKPKDTLLIARTPEVTCVVVDLGREDPEVQISWFVDGKQMQTAKTQPREEQFNGTYRVVSVLPIGHQDWLKGKQFTCKVNHIGLPSPIERTISKARGQAHQPSVYVLPPSREELSKNTVSLTCLIKDFFPPDIDVEWQSNGQQEPESKYRTTPPQLDEDGSYFLYSKLSVDKSRWQRGDTFICAVMHEALHNHYTQKSLSHSPGK
VL: SYVLTQLPSKNVTLKQPAHITCGGDNIGSKSVHWYQQKLGQAPVLIIYYDSSRPTGIPERFSGANSGNTATLTISGALAEDEADYYCQVWDSSAKAWVFGEGTQLTVL
B4: PMX171 (monospecific anti-canine CD3, canine IgG-B effector function deficient Fc) (antibody)
heavy: EVQLVESGGDLVKPGGSLRLSCEASGFTFSSYHMSWVRQAPGKGLQWVAYINNGGSGTSYADAVKGRFTISRDNAKNTLYLQMNSLRAEDTAVYFCASEGGGKRYGYKDYGMDYWGHGTSLFVSSASTTAPSVFPLAPSCGSTSGSTVALACLVSGYFPEPVTVSWNSGSLTSGVHTFPSVLQSSGLYSLSSMVTVPSSRWPSETFTCNVAHPASKTKVDKPVPKRENGRVPRPPDCPKCPAPESLGGPSVFIFPPKPKDTLLIARTPEVTCVVVDLGREDPEVQISWFVDGKQMQTAKTQPREEQFNGTYRVVSVLPIGHQDWLKGKQFTCKVNHIGLPSPIERTISKARGQAHQPSVYVLPPSREELSKNTVSLTCLIKDFFPPDIDVEWQSNGQQEPESKYRTTPPQLDEDGSYFLYSKLSVDKSRWQRGDTFICAVMHEALHNHYTQKSLSHSPGK
VL: SYVLTQLPSKNVTLKQPAHITCGGDNIGSKSVHWYQQKLGQAPVLIIYYDSSRPTGIPERFSGANSGNTATLTISGALAEDEADYYCQVWDSSAKAWVFGEGTQLTVL
B5: PMX174 (monospecific anti-canine CD3, canine IgG-B effector function deficient Fc) (antibody)
heavy: EVQLVESGGDLVKAGVSLRLSCVASGFTFSNYHLNWVRQAPGKGPQWVASINSGGSSTYYADAVKGRFTISRDNAKNTLYLQMNSLRAEDTAVYYCASDHGSYRGMDYWGHGTSLFVSSASTTAPSVFPLAPSCGSTSGSTVALACLVSGYFPEPVTVSWNSGSLTSGVHTFPSVLQSSGLYSLSSMVTVPSSRWPSETFTCNVAHPASKTKVDKPVPKRENGRVPRPPDCPKCPAPESLGGPSVFIFPPKPKDTLLIARTPEVTCVVVDLGREDPEVQISWFVDGKQMQTAKTQPREEQFNGTYRVVSVLPIGHQDWLKGKQFTCKVNHIGLPSPIERTISKARGQAHQPSVYVLPPSREELSKNTVSLTCLIKDFFPPDIDVEWQSNGQQEPESKYRTTPPQLDEDGSYFLYSKLSVDKSRWQRGDTFICAVMHEALHNHYTQKSLSHSPGK
VL: SYVLTQLPSKNVTLKQPAHITCGGDNIGSKSVHWYQQKLGQAPVLIIYYDSSRPTGIPERFSGANSGNTATLTISGALAEDEADYYCQVWDSSAKAVFGGGTHLTVL
B6: PMX175 (monospecific anti-canine CD3, canine IgG-B effector function deficient Fc) (antibody, V domains shown)
VH: ELTLQESGPGLVKPSQTLSLTCVVSGGSVTSTYYWNWIRQRPGRGLEWMGYWTGTTNYNPAFQGRISITADTAKNQFSLQLSSMTTEDTAVYYCAREDLVTVGSGAFNYWGQGTLVTVSS
VL: SYVLTQLPSKNVTLKQPAHITCGGDNIGSKSVHWYQQKLGQAPVLIIYYDSSRPTGIPERFSGANSGNTATLTISGALAEDEADYYCQVWDSSATWVFGEGTQLTVL
B7: PMX176 (monospecific anti-canine CD3, canine IgG-B effector function deficient Fc) (antibody, V domains shown)
VH: EVQLVESGGDLVKPGGSLRLSCVASGFTFSSYHMSWVRQAPGKGLQWVAYINSAGSTTSYTDAVQGRFTISRDNAKNTLYLQMNSLRAEDTAVYYCASEWIFMPWGQGSLVTVSS
VL: SYVLTQLPSKNVTLKQPAHITCGGDNIGSKSVHWYQQKLGQAPVLIIYYDSSRPTGIPERFSGANSGNTATLTISGALAEDEADYYCQVWDSSAKARVFGEGTQLTVL
B8: PMX177 (monospecific anti-canine CD3, canine IgG-B effector function deficient Fc) (antibody, V domains shown)
VH: EVTLQESGPGLVKPSQTLSLTCVVSGGSVTSSFYWNWIRQRPGRGLEWMGYWTGSTNYNPAFQGRISITADTAKNQFSLHLGSMTTDDTAMYYCAREEGSWGRVYFDYWGQGTLVTVSS
VL: SYVLTQLPSKNVTLKQPAHITCGGDNIGSKSVHWYQQKLGQAPVLIIYYDSSRPTGIPERFSGANSGNTATLTISGALAEDEADYYCQVWDSSTKTWVFGEGTQLTVL
B9: PMX179 (monospecific anti-canine CD3, canine IgG-B effector function deficient Fc) (antibody, V domains shown)
VH: ELALQESGPGLVRPSQTLSLTCVVSGGSVTRSYYWNWIRQRPGRGLEWMGYWTGTTIYNPAFQGRISITVDTAKNQFSLHLISMTTEDTAVYYCGREGGSSLGAIAYWGQGTRVTVSS
VL: SYVLTQLPSKNVTLKQPAHITCGGDNIGSKSVHWYQQKLGQAPVLIIYYDSSRPTGIPERFSGANSGNTATLTISGALAEDEADYYCQVWDSSAKAAVFGGGTHLTVL
B10: PMX180 (monospecific anti-canine CD3, canine IgG-B effector function deficient Fc) (antibody, V domains shown)
VH: ELTLQESGPGLVKPSQTLSLTCVVSGGSVTSNYYWNWIRQRPGRGLEWMGYWTGSTNYNPAFQGRISITADTAKKQFSLQLRSMTIEDTAVYYCARRGIPIFFDYWGQGTLVTVSS
VL: SYVLTQLPSKNVTLKQPAHITCGGDNIGSKSVHWYQQKLGQAPVLIIYYDSSRPTGIPERFSGANSGNTATLTISGALAEDEADYYCQVWDSSASVFGGGTHLTVL

Target: canine CD3 on canine T cells (canine PBMC) (canine, UniProt P27597 22-202)
Sequence (P27597 22-202 limits assumed, chain 1 of 3): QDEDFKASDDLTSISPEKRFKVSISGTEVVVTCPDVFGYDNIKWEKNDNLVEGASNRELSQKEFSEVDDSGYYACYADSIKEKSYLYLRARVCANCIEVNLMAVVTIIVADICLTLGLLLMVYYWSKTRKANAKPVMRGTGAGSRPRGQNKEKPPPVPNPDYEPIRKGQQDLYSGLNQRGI
Sequence (chain, as listed by the source limits assumed, chain 2 of 3): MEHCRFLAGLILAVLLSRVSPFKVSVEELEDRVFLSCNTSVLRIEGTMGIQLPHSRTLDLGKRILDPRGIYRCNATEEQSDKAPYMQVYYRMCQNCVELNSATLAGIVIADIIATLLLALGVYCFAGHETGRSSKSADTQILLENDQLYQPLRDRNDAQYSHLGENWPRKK
Sequence (chain, as listed by the source limits assumed, chain 3 of 3): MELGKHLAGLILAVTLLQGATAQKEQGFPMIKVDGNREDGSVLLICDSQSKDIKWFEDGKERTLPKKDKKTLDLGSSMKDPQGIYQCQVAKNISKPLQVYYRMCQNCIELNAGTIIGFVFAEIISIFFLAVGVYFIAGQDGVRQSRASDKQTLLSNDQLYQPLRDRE
Assay: cell-based or functional assay

Row | Binder | CD25 Activation, Day 6, IS | CD25 Activation, Day 6, PB | CD25 Activation, Day 9, IS | CD25 Activation, Day 9, PB | IFNy Concentration pg/ml, Day 6, IS [pg/mL] | IFNy Concentration pg/ml, Day 9, IS [pg/mL] | IFNy Concentration pg/ml, Day 9, PB [pg/mL] | Ki67 Proliferation, Day 6, IS | Ki67 Proliferation, Day 6, PB | Ki67 Proliferation, Day 9, IS | Ki67 Proliferation, Day 9, PB
1 | B1 | 7.17 | 13.4 | 8.87 | 6.52 | 61.1 | 301 | 2450 | 1.57 | 0.15 | 1.53 | 0.36
2 | B2 | 7.09 | 4.93 | 11.6 | 12.8 | 63.5 | 802 | 1290 | 1.55 | 0 | 2.66 | 0.25
3 | B3 | 9.44 | 11.8 | 7.39 | 11.3 | 71.3 | 114 | 282 | 1.99 | 0.27 | 0.79 | 0.47
4 | B4 | 11.9 | 13.7 | 10.4 | 6.22 | 106 | 146 | 277 | 0.98 | 0.57 | 1.91 | 0.52
5 | B5 | 7.37 | 8.61 | 8.21 | 8.48 | 17.4 | 627 | 591 | 0.95 | 0.089 | 1.03 | 0
6 | B6 | 14.5 | 8.76 | 10 | 9.46 | 51 | 233 | 706 | 2.03 | 0.59 | 1 | 0.95
7 | B7 | 10.3 | 9.61 | 12.3 | 10.1 | 30.3 | 278 | 594 | 0.93 | 1.45 | 2.2 | 0
8 | B8 | 8.02 | 12.6 | 13.7 | 18.4 | 28.8 | 763 | 2210 | 1.41 | 1.37 | 3.19 | 0.47
9 | B9 | 8.73 | 22 | 10.9 | 22.9 | 43.4 | 162 | 2750 | 1.27 | 0.48 | 2.06 | 0.31
10 | B10 | 10.7 | 8.6 | 13.9 | 17 | 55.5 | 318 | 773 | 1.2 | 0.21 | 1.77 | 0.58

— patent US20240209086A1 (PETMEDIX, published 2024)
